From patent publication US20140234868A1, “USE FOR GLYCOLIPOPROTEIN GINTONIN, ISOLATED AND IDENTIFIED FROM GINSENG, AS A NATURAL MEDICAL-PLANT DERIVED LIGAND” (KONKUK UNIVERSITY INDUSTRIAL COOPERATION CORP., priority 2011, published 2014)

Molecular target: T1, LPA6 receptor (Homo sapiens, UniProt P43657)
T1 construct: host or cells: B103 rat neuroblastoma cells
T1 sequence (P43657 1-344): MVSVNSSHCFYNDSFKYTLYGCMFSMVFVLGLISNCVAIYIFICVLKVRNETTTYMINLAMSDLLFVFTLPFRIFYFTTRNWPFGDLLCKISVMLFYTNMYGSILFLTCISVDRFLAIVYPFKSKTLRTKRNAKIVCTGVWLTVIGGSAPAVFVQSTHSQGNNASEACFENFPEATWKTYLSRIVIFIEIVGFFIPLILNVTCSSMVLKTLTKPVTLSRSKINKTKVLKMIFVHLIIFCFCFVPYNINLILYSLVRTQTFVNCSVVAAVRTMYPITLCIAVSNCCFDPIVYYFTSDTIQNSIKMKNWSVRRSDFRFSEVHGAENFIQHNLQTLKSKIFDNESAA
Test: Intracellular free Ca2+ (Fura-2AM) in LPA6-expressing B103 cells
Assay type: cell-based
Excerpt: LPA family receptors are endogenous to cells of most organs. B103 rat neuroblastoma cells, known as LPA receptor-null cells (Valentine et al., Biochim Biophys Acta 1780. 597-605) were transiently transfected with a plasmid (vector) carrying one of genes coding for LPA1(edg-2), LPA2(edg-4), LPA3(edg-7), LPA4, LPA5 and LPA6 receptors or a plasmid carrying none of them (empty vector). Two or three days after transfection, the cells are suspended, and made permeable. Then, the permeable cells are treated with Fura-2AM, a fluorescent dye binding to calcium, and then with gintonin, followed by spectrofluorephotometry to examine whether gintonin induces an increase in intracellular free Ca^2+ level. […]

B1: gintonin: ginseng-derived glycolipoprotein; structural protein of ginseng major latex-like protein (MLP151) and ribonuclease-like storage proteins; crude gintonin used in tests (protein)
chain 1: MGLTGKLICQTGIKSDGDVFHELFGTRPHHVPNITPANIQGCDLHEGEFGKVGSVVIWNYSIDGNAMIAKEEIVAIDEEDKSVTFKVVEGHLFEEFKSIVFSVHVDTKGEDNLVTWSIDYEKLNESVKDPTSYLDFLLSVTRDIEAHHLPK
chain 2: RSDYPWAMFALRLQWPAGFCEVNNACDTKSLLNTFTIHGLYPYNAKGTPALYCDGTAFDVNSVSDFLAEMHLAWPSHETNTEDIQFWEHEWKKHGRCSEALLKQTDYFRTALAFRKAFDIVGLLNQEGIYPNNDLYRPKMIKEAIKKHLNAVPEIDFTKNENSEYVLTDINVCVNQQATRFVDCPTDDATDDYRLKFVRLPSKMKFADPRTNSII
gintonin activity on intracellular calcium level: No gintonin activity was detected
